From patent US20160367497A1, “METHODS AND COMPOSITIONS FOR TREATING NEUROPATHIES” (Washington University, priority 2007, published 2016)

Key:
[1] = NMNAT enzymatic assay (NAD production); assay type: biochemical; conditions: protein from HEK293/HEK293T cells; NAD generated in 1 h
Method: […]
NMNAT protein overexpression, affinity purification and enzymatic assay. […] Relative NMNAT enzymatic activity was measured by using affinity purified proteins as described before and subtracted the value obtained from mock transfected cells and normalized by the amount of recombinant protein determined by densitometry.

[2] = test system: DRG neuronal explant cultures; test: in vitro Wallerian degeneration assay, DRG explant neurite transection; assay type: cell-based, mouse; conditions: lentivirus-mediated expression in DRG neurons
Method: To identify the mechanism of delayed axonal degeneration mediated by the Wlds protein, we employed an in-vitro Wallerian degeneration model. Primary DRG explant neurons were infected with lentivirus expressing the appropriate proteins, and axons were injured by either removal of the neuronal cell body (transection) or growth in vincristine (toxic).
Mouse DRG explants from E12.5 embryos were cultured in the presence of 1 nM nerve growth factor. Non-neuronal cells were removed from the cultures by adding 5-fluorouracil to the culture medium. Transection of neurites was performed at 10-20 DIV using an 18-gauge needle to remove the neuronal cell bodies. Incubation with β-nicotinamide adenine dinucleotide (Sigma) or Sirtinol (Calbiochem) was performed using conditions indicated in the text or figures.
Quantitative analysis of axonal degeneration was performed as previously described (Zhai, et al., Neuron 39:217-25, 2003). Briefly, the cultures were examined using phase contrast microscopy at the indicated times. Axons with a fragmented, non-refractile appearance were designated as “degenerated.” At each time point, at least 200 singly distinguishable axons were blindly scored from several randomly taken images of each culture. Each condition was tested in triplicate explants in each experiment. Results were obtained from 2-4 independent experiments for each condition. Statistical analysis was performed by Student's T test. For calculations of neurite-covered area, digitally captured images from quadruplicate samples of two independent experiments were analyzed using analysis 3.1 software (Soft Imaging System, Lakewood, Colo.).
Cell culture, in vitro axotomy, and quantification of axonal degeneration. Mouse DRG explants from E12.5 embryos were cultured in the DMEM containing 10% FCS and 1 nM nerve growth factor. Non-neuronal cells were removed from the cultures by adding 5-fluorouracil to the culture media. Transection of neurites was performed at 14-21 DIV using an 18-gauge needle to remove the neuronal cell bodies. Lentiviral expression vectors were generated. Lentiviral infection was performed 3-7 days prior to axonal transection for 24 hr. Quantitative analysis of neurite degeneration was performed.

NMNAT3: murine nicotinamide mononucleotide adenylyltransferase3
NMNAT enzymatic activity (NAD synthesis) [1]: comparable enzymatic activity compared with NMNAT1
axonal/neurite degeneration after transection [2]: same extent of delay in neurite degeneration as well as NMNAT1
